Reference: patent publication US20170145113A1 (Genentech, published 2017)
Changes are numbered by the printed parent chain. Names and notes keep the numbering of the source. Values belong to the binder of their own block, whether it stands above or below them.

Legend:
[1] = target: T1, His-tagged human HtrA1 protease domain (human, UniProt Q92743 161-367); test: phage competition ELISA (Fab on phage, HtrA1 in solution)
T1 construct: His-tagged protease domain; also called huHtrA1-PD-His; huHtrA1-PD
Procedure: (§1) MAXISORP™ microliter plates were coated with human HtrA1-PD-His at 2 μg/ml in PBS for 2 h and then blocked with PBST buffer (0.5% BSA and 0.05% TWEEN®20 in PBS) for 1 h at room temperature. Phage purified from culture supernatants were incubated with serially-diluted human or murine HtrA1 in PBST buffer in a tissue-culture microtiter plate for 1 h, after which 80 μl of the mixture was transferred to human HtrA1-coated wells for 15 min to capture unbound phage. The plate was washed with PBT buffer (0.05% TWEEN®20 in PBS), and HRP-conjugated anti-M13 antibody (Amersham Pharmacia Biotech) was added (1:5000 in PBST buffer) for 40 min. The plate was washed with PBT buffer and developed by adding tetramethylbenzidine substrate (Kirkegaard and Perry Laboratories, Gaithersburg, Md.). The absorbance at 450 nm was plotted as a function of target concentration in solution to determine phage IC50.

[2] = target: T2, His-tagged recombinant murine HtrA1 protease domain (murine, UniProt Q9R118 156-367); test: as above
T2 construct: His-tagged protease domain; also called muHtrA1-PD-His; muHtrA1-PD
Procedure: as §1

[3] = target: T1, His-tagged human HtrA1 protease domain; test: BIACORE SPR, single-cycle kinetics; Fab analyte over captured human HtrA1
[4] = target: T1, His-tagged human HtrA1 protease domain; test: as above; remark: listed apart in the source
[5] = target: T1, His-tagged human HtrA1 protease domain; test: cell-based or functional assay
[6] = target: T1, His-tagged human HtrA1 protease domain; test: BIACORE SPR, Fab analyte, Human HtrA1-PD (N=2)
[7] = target: T1, His-tagged human HtrA1 protease domain; test: BIACORE SPR analysis, Fab format
Procedure: (§2) To determine the binding affinity of selected Fab variants for HtrA1, SPR measurement with a BIACORE™ T200 instrument was performed. Briefly, a series S sensor chip CM5 was activated with 1-EDC and NHS reagents according to the supplier's instructions, and anti-His antibody was coupled to achieve 200-300 response units (RU), then following by blocking un-reacted groups with 1 M ethanolamine. For kinetics measurements, approximately 5 nM of huHtrA1-PD-His was first injected at 10 μl/min flow rate to capture approximately 100 RU at 2 different flow cells (FC), except for FC1 (which served as a reference). Next, 5-fold serial dilutions of Fab in HBS-P buffer (0.01M HEPES pH 7.4, 0.15M NaCl, 0.005% surfactant P20) from low (0.8 nM) to high (50 nM) were injected (flow rate: 30 μl/min). The binding responses on HtrA1 were corrected by subtracting of RU from a blank flow cell. The sensorgram was recorded and subject to reference and buffer subtraction before evaluating by BIACORE® T200 Evaluation Software (version 2.0). Association rates (kₒₙ) and dissociation rates (koff) were calculated using a simple one-to-one Langmuir binding model. The equilibrium dissociation constant (KD) was calculated as the ratio of koff/kₒₙ.

[8] = target: T1, His-tagged human HtrA1 protease domain; test: SPR (BIACORE), Fab
Text: (§3) To address W91 oxidation in HVR-L3, 2 variants (LC-W91Y and LC-W91L) were generated and produced as Fabs for BIACORE™ SPR binding analysis.
(§4) To determine the binding affinity of anti-HtrA1 Fabs by single-cycle kinetics, (SPR) measurement with a BIACORE™ T100 instrument was used. Briefly, a series S sensor chip CM5 was activated with 1-ethyl-3-(3-dimethylamino-propyl)carbodiimide hydrochloride (EDC) and N-hydroxysuccinimide (NHS) reagents according to the supplier's instructions, and streptavidin (Pierce) was coupled to achieve approximately 2500 response units (RU), followed by blocking un-reacted groups with 1 M ethanolamine.
(§5) For kinetics measurements, biotinylated human or murine HtrA1-PD-His was first injected at 10 μl/min flow rate to capture approximately 150 RU at 3 different flow cells (FC), except for FC1 (which served as a reference), and then 5-fold serial dilutions of anti-HtrA1 Fab in HBS-P buffer (0.01M HEPES pH 7.4, 0.15 M NaCl, 0.005% surfactant P20) from low (0.48 nM) to high (300 nM) were injected (flow rate: 30 μl/min) one after the other in the same cycle with no regeneration between injections. The sensorgram was recorded and subject to reference and buffer subtraction before evaluating by BIACORE™ T100 Evaluation Software (version 2.0). Association rates (kₒₙ) and dissociation rates (koff) were calculated using a simple one-to-one Langmuir binding model. The equilibrium dissociation constant (KD) was calculated as the ratio koff/kₒₙ.

[9] = target: T2, His-tagged recombinant murine HtrA1 …; test: SPR (BIACORE), Fab
Text: as §3, §4, §5

[10] = target: T1, His-tagged human HtrA1 protease domain; test: SPR (BIACORE T200), huHtrA1-PD-His captured by anti-His, Fab injected
Procedure: as §2

[11] = target: T1, His-tagged human HtrA1 protease domain; test: BIACORE T200 SPR; Fab analyte over huHtrA1-PD-His captured by anti-His antibody
Procedure: as §2

[12] = target: T1, His-tagged human HtrA1 protease domain; test: cell-based or functional assay; remark: listed apart in the source
[13] = target: T1, His-tagged human HtrA1 protease domain; test: SPR (BIACORE T200), huHtrA1-PD-His captured by anti-His, Fab injected; remark: listed apart in the source
[14] = target: T1, His-tagged human HtrA1 protease domain; test: SPR (BIACORE T100), single-cycle kinetics; biotinylated HtrA1-PD-His on streptavidin, Fab injected
Text: as §4, §5

[15] = target: T2, His-tagged recombinant murine HtrA1 …; test: as above
Text: as §4, §5

[16] = target: T2, His-tagged recombinant murine HtrA1 …; test: BIACORE SPR, single cycle kinetic analysis; ligand streptavidin-captured biotin murine HtrA1, analyte Fab
Text: as §4, §5

[17] = target: T1, His-tagged human HtrA1 protease domain; test: BIACORE SPR, single cycle kinetic analysis; ligand streptavidin-captured biotin human HtrA1, analyte Fab
Text: as §4, §5

[18] = target: T1, His-tagged human HtrA1 protease domain; test: SPR (BIACORE), Fab; remark: listed apart in the source
[19] = target: purified full-length human HtrA1 (human, UniProt Q92743 23-480); test: cell-based or functional assay
[20] = target: purified full-length murine HtrA1 (murine, UniProt Q9R118 23-480); test: cell-based or functional assay
[21] = target: T3, murine HtrA4 protease domain (murine, UniProt A2RT60 160-371, limits assumed); test: ELISA, hybridoma clone
T3 construct: domain: PD (protease domain); also called muHtrA4-PD; murine HtrA4-PD
T3 sequence (looked up): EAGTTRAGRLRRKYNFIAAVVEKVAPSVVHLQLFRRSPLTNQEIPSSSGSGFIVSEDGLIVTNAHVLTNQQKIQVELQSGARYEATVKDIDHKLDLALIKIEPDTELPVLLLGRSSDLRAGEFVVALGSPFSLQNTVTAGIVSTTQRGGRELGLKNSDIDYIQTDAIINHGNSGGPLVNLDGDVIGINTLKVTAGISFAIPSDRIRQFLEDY

T1 sequence (Q92743 other isoform, or with tags, fused parts or gaps limits assumed): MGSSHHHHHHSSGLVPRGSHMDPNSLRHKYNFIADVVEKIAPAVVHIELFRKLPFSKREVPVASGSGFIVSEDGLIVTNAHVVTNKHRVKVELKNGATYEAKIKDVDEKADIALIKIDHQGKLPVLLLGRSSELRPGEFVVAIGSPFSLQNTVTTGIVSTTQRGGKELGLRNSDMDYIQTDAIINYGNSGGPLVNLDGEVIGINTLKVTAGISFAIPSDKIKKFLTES
Sequence of purified full-length human HtrA1 (Q92743 23-480): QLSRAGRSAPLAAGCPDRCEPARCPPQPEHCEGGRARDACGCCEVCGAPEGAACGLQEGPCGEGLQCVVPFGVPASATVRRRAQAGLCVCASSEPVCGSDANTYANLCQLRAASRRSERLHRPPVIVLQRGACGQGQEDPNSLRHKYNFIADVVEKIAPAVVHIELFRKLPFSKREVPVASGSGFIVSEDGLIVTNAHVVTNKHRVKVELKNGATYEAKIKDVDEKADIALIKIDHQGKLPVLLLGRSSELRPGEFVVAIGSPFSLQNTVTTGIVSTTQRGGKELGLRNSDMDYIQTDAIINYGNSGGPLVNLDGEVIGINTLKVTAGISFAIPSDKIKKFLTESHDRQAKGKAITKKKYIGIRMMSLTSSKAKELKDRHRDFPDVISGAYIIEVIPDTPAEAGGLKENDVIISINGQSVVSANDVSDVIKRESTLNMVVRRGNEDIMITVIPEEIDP

B1: h15H6.v1 HC-L69I variant (Fab, V domains shown)
VH: EVQLVQSGAEVKKPGASVKVSCKASGYTFTDSEMHWVRQAPGQGLEWIGGVDPETDGAAYNQKFKGRATITADTSTSTAYLELSSLRSEDTAVYYCTRGYDYDYALDYWGQGTLVTVSS
VL: DIQMTQSPSSLSASVGDRVTITCRASSSVNFIHWYQQKPGKAPKPWISATSNLASGVPSRFSGSGSGTDFTLTISSLQPEDFATYYCQQWSSNPWTFGQGTKVEIK
notes: built as h15H6.v1
binding result [1]: binds
binding result [2]: binds

B2: h15H6.v1 LC-S49Y variant (Fab, V domains shown)
VH: B1 VH with I70L
VL: B1 VL with S48Y
notes: built as h15H6.v1
fold reduction of binding against h15H6.v1 [1]: ~10 fold
fold reduction of binding against h15H6.v1 [2]: ~10 fold

B4: h15H6.v1 LC-W47L variant (Fab, V domains shown)
VH: B1 VH with I70L
VL: B1 VL with W46L
notes: its VL equals the VL of h15H6.v2, which carries LC-W47L as its only light chain change
binding result [1]: binds
binding result [2]: binds

B6: anti-HtrA1 hybridoma antibody clone 19B12 (antibody, V domains shown)
VH: EVKLVESGGGLVEPGGSLKLACVASGFTFSSYIMSWVRQTPEKRLEWVAYISNGGGTTYYSDTIKGRFTISRDNAKNTLYLQMSTLKSEDTAIYFCARQNFRSDGSSMDYWGQGTAVTVSS
VL: NIVVTQSPASLAVSLGQRATISCRASESVDSYGKSFMHWYQQKPGQPPKLLIYLASKLESGVPARFSGSGSRTDFTLTIDPVEADDAATYYCQQNNEDPYTFGGGTKLEIK
notes: Murine mIgG2a, from hybridoma or recombinant from 293 cells; also called m19B12
IC50, FRET blocking assay, recombinant antibody from 293 cells [19]: ~1.2 nM
IC50, FRET-based blocking assay (H2-Opt cleavage) [19]: 1.4 nM
IC50, FRET-based blocking assay (H2-Opt cleavage) [20]: 1 nM
binding result [21]: no binding

The next lines start with the values.

Kd [3]: 0.25 nM
koff [3]: 0.00016 s⁻¹
kon [3]: 630000 M⁻¹ s⁻¹
Kd [4]: 0.33 nM
koff [4]: 0.00014 s⁻¹
kon [4]: 430000 M⁻¹ s⁻¹
IC50, FRET-based H2-Opt blocking assay [5]: ~0.39 nM
Kd [6]: 0.4 nM
koff [6]: 0.00021 s⁻¹
kon [6]: 490000 M⁻¹ s⁻¹
Kd [7]: 0.219 nM
Kd [8]: 0.2 nM
koff [8]: 0.00012 s⁻¹
kon [8]: 690000 M⁻¹ s⁻¹
Kd [9]: 0.4 nM
koff [9]: 0.00015 s⁻¹
kon [9]: 360000 M⁻¹ s⁻¹
Kd [10]: 0.22 nM
koff [10]: 0.000158 s⁻¹
kon [10]: 722000 M⁻¹ s⁻¹
Kd [11]: 0.219 nM
IC50 FRET (H2-Opt substrate cleavage) [12]: 0.44 nM
IC90 FRET (H2-Opt substrate cleavage) [12]: 1.87 nM
Max inhibition (FRET H2-Opt assay) [12]: 91
Kd [13]: 0.22 nM
koff [13]: 0.000158 s⁻¹
kon [13]: 722000 M⁻¹ s⁻¹
B3: h15H6.v2 Fab (Fab, V domains shown)
VH: B1 VH with A72R
VL: B1 VL with W46L
notes: Tested as Fab; also called parent; parental Fab

Kd [14]: 10.7 nM
koff [14]: 0.0016 s⁻¹
kon [14]: 150000 M⁻¹ s⁻¹
Kd [15]: 7.6 nM
koff [15]: 0.00091 s⁻¹
kon [15]: 120000 M⁻¹ s⁻¹
Kd [16]: 6.65 nM
koff [16]: 0.00134 s⁻¹
kon [16]: 201000 M⁻¹ s⁻¹
Kd [17]: 24 nM
koff [17]: 0.00345 s⁻¹
kon [17]: 144000 M⁻¹ s⁻¹
fold improvement of KD against m19B12 [18]: ~2 fold
B5: h19B12.v1 Fab (Fab, V domains shown)
VH: EVQLVESGGGLVQPGGSLRLSCAASGFTFSSYIMSWVRQAPGKGLEWVAYISNGGGTTYYSDTIKGRFTISRDNSKNTLYLQMNSLRAEDTAVYYCARQNFRSDGSSMDYWGQGTLVTVSS
VL: DIVMTQSPDSLAVSLGERATINCRASESVDSYGKSFMHWYQQKPGQPPKLLIYLASKLESGVPDRFSGSGSGTDFTLTISSLQAEDVAVYYCQQNNEDPYTFGQGTKVEIK
notes: Tested in Fab format
